Laboratory results: publication PMC11162772, “FUS reads histone H3K36me3 to regulate alternative polyadenylation”

Legend:
FUS-ΔZNF = FUS-ΔZNF (UniProt P35637 1-421+454-526, internal_change); test: MST; no significant decrease vs WT; MST: PBS with 0.05% BSA and 0.05% Tween-20, 5 nM Cy5-RNA, temperature not stated; nucleosome pull-down buffer not given; settings: protein: recombinant; tags: GST (pGEX-6p-2); label: 3' Cy5
[1] = molecular target: FUS P421L (so in the source) (UniProt P35637 1-526, P431L); test: MST; slightly increased affinity vs WT; MST: PBS with 0.05% BSA and 0.05% Tween-20, 5 nM Cy5-RNA, temperature not stated; nucleosome pull-down buffer not given; settings: protein: recombinant; tags: GST (pGEX-6p-2); label: 3' Cy5
Sequence of FUS P421L (so in the source) (P35637 whole entry P431L): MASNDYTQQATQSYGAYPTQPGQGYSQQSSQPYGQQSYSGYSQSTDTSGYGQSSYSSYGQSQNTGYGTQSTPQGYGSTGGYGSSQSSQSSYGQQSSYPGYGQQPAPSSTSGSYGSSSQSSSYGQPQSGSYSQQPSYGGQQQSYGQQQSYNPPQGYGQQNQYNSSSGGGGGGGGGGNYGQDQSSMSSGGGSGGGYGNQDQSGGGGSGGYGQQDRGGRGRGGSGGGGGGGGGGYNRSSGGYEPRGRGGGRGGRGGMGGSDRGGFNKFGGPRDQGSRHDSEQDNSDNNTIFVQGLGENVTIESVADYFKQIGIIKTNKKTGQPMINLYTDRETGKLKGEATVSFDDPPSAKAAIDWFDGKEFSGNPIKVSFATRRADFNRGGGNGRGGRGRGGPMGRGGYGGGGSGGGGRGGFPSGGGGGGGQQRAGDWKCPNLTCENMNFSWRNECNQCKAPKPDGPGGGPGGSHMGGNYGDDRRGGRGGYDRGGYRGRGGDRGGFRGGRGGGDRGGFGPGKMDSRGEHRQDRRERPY

Sequence of FUS-ΔZNF (P35637 other isoform, or with tags, fused parts or gaps | mutant): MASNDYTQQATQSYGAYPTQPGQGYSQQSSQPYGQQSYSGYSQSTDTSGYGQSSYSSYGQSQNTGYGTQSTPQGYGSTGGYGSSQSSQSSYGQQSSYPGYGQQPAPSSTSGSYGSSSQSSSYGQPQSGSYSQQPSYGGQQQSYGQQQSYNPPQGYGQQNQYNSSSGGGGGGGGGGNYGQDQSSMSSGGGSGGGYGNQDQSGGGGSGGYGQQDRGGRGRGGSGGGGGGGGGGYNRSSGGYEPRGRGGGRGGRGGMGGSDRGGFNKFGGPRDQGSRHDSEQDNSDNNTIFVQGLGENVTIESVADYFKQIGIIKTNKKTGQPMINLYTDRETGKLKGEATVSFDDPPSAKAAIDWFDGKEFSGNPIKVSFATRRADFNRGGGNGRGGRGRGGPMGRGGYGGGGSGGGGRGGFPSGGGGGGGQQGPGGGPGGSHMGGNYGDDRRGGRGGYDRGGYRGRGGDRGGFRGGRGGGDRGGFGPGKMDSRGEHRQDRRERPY

Binder | binding result (FUS-ΔZNF) | binding result [1]
GGUGGGUGGGUGGGUGGGUG (ssRNA) [5XGGUG-3'Cy5] | binds | binds
UUAGGGUUAGGGUUAGGGUUAGGG (ssRNA) [4XUUAGGG-3'Cy5] | binds | 
